The target of one assay is T1, CD40 (human, UniProt P25942 21-193).
T1 construct: Whole on GS-H2-huCD40 reporter cells in the reporter assays
Briefly: FCM or ELISA, graded. (In general: ELISA stands for enzyme-linked immunosorbent assay.)

In the next assay the target is T2, PD-L1 (human, UniProt Q9NZQ7 19-238, limits assumed).
T2 construct: On Raji cells expressing human PD-L1 in the reporter assay
Briefly: FCM or ELISA, graded.

For the next assay, the target named is T3, CD137 (human, UniProt Q07011 24-186).
T3 construct: Whole on GS-H2-huCD137 reporter cells in the reporter assays; also called 4-1BB
The assay is described as follows: FCM or ELISA, graded.

For a further assay, the target named is T4, CD19 (human, UniProt P15391 20-556).
T4 construct: whole, on cells
T4 sequence (looked up): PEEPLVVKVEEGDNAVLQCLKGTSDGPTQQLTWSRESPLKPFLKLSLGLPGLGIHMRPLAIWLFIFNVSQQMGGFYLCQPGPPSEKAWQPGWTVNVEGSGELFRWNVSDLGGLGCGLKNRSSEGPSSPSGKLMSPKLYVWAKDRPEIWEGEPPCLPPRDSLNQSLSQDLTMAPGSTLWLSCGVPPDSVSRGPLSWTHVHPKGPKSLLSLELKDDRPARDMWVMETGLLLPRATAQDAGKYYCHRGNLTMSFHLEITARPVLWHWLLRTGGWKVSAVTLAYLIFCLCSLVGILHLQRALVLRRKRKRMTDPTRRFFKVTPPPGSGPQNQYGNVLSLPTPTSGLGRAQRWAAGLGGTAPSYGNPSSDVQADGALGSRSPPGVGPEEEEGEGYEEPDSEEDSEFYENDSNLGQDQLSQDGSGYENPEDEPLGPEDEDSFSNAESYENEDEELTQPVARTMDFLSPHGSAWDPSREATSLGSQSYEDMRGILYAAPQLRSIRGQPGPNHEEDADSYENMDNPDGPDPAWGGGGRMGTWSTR
The assay is described as follows: CHO cells overexpressing CD19, graded.

T1 sequence (P25942 21-193 limits assumed): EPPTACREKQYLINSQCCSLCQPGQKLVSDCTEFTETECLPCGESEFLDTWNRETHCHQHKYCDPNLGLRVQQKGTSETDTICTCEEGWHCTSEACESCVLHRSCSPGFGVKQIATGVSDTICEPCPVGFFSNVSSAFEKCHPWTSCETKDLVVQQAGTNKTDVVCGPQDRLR
T2 sequence (Q9NZQ7 19-238 limits assumed): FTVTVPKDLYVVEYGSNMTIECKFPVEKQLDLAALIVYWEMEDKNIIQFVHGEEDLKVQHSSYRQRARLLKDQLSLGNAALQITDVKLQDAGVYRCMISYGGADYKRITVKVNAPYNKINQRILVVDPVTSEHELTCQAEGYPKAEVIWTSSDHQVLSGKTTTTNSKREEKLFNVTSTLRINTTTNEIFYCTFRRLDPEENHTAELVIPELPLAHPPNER

B1: Ly2453 (multi-specific antibody)
chain 1: not shown
chain 2: QVQLVQSGAEVKKPGASVKVSCKASGYTFTDFWMSWVRQAPGQGLEWMGQIYPNTGTTHSNEKFKGRVTMTRDTSTSTVYMELSSLRSEDTAVYYCARSYHISTTPNWFAYWGQGTLVTVSSASTKGPSVFPLAPSSKSTSGGTAALGCLVKDYFPEPVTVSWNSGALTSGVHTFPAVLQSSGLYSLSSVVTVPSSSLGTQTYICNVNHKPSNTKVDKKVEPKSCGGGGSGGGGSGGGGSGGGGSDIQMTQSPSSVSASVGDRVTITCRASQGIYSWLAWYQQKPGKAPNLLIYTASTLQSGVPSRFSGSGSGTDFTLTISSLQPEDFATYYCQQANIFPLTFGGGTKVEIKGGGGSDKTHTCPPCPAPEAAGPSVFLFPPKPKDTLMISRTPEVTCVVVDVSHEDPEVKFNWYVDGVEVHNAKTKPREEQYNSTYRVVSVLTVLHQDWLNGKEYKCKVSNKALPAPIEKTISKAKGQPREPQVYTLPPSREEMTKNQVSLSCAVKGFYPSDIAVEWESNGQPENNYKTTPPVLDSDGSFFLVSKLTVDKSRWQQGNVFSCSVMHEALHNRFTQKSLSLSPG
chain 3: DIQMTQSPSSLSASVGDRVTITCKASQNVYKKLEWYQQKPGKVPKVLIYHTNILQTGVPSRFSGSGSGTDYTLTISSLQPEDVATYYCYQWNSGPTFGGGTKVEIKRTVAAPSVFIFPPSDEQLKSGTASVVCLLNNFYPREAKVQWKVDNALQSGNSQESVTEQDSKDSTYSLSSTLTLSKADYEKHKVYACEVTHQGLSSPVTKSFNRGEC
notes: PD-L1/CD40
As for B1, in the assay with CD40, the binding result is “binds”.

B2: Ly2454 (multi-specific antibody, human IgG1, kappa)
chain 1: not shown
chain 2: QVQLVQSGAEVKKPGASVKVSCKASGYTFTDFWMSWVRQAPGQGLEWMGQIYPNTGTTHSNEKFKGRVTMTRDTSTSTVYMELSSLRSEDTAVYYCARSYHISTTPNWFAYWGQGTLVTVSSASTKGPSVFPLAPSSKSTSGGTAALGCLVKDYFPEPVTVSWNSGALTSGVHTFPAVLQSSGLYSLSSVVTVPSSSLGTQTYICNVNHKPSNTKVDKKVEPKSCDKTHTCPPCPAPEAAGPSVFLFPPKPKDTLMISRTPEVTCVVVDVSHEDPEVKFNWYVDGVEVHNAKTKPREEQYNSTYRVVSVLTVLHQDWLNGKEYKCKVSNKALPAPIEKTISKAKGQPREPQVYTLPPSREEMTKNQVSLSCAVKGFYPSDIAVEWESNGQPENNYKTTPPVLDSDGSFFLVSKLTVDKSRWQQGNVFSCSVMHEALHNRFTQKSLSLSPGGGGGSGGGGSGGGGSGGGGSDIQMTQSPSSVSASVGDRVTITCRASQGIYSWLAWYQQKPGKAPNLLIYTASTLQSGVPSRFSGSGSGTDFTLTISSLQPEDFATYYCQQANIFPLTFGGGTKVEIK
chain 3: B1 chain 3
notes: PD-L1/CD40
Consider B2, for which, in the assay with CD40, the binding result was “binds”.

B3: Ly2846 (multi-specific antibody)
chain 1: QVQLVQSGAEVKKPGASVKVSCKASGYTFTSYVMHWVRQKPGQGLEWIGYINPYNEGTESTDKFKGRATMTSDKSTSTVYMELSSLRSEDTAVYYCASIYYGYEGTYFGVWGQGTLVTVSSASTKGPSVFPLAPSSKSTSGGTAALGCLVKDYFPEPVTVSWNSGALTSGVHTFPAVLQSSGLYSLSSVVTVPSSSLGTQTYICNVNHKPSNTKVDKKVEPKSCGGGGSGGGGSGGGGSGGGGSEVQLVESGGGLVQPGGSLRLSCAASGFTFSTYAMNWVRQAPGKGLEWVGRIRSKYNNYATYYADSVKGRFTISRDDSKNSLYLQMNSLKTEDTAVYYCVRHGNFGNSYVSWFAYWGQGTLVTVSSGGGGSDKTHTCPPCPAPELLGPSVFLFPPKPKDTLMISRTPEVTCVVVDVSHEDPEVKFNWYVDGVEVHNAKTKPREEQYNSTYRVVSVLTVLHQDWLNGKEYKCKVSNKALGAPIEKTISKAKGQPREPQVYTLPPSREEMTKNQVSLWCLVKGFYPSDIAVEWESNGQPENNYKTTPPVLDSDGSFFLYSKLTVDKSRWQQGNVFSCSVMHEALHNHYTQKSLSLSPGKGGGGSGGGGSGGGGSGGGGSQVQLVQSGAEVKKPGASVKVSCKASGYTFTDFWMSWVRQAPGQGLEWMGQIYPNTGTTHSNEKFKGRVTMTRDTSTSTVYMELSSLRSEDTAVYYCARSYHISTTPNWFAYWGQGTLVTVSS
chain 2: QVQLVQSGAEVKKPGASVKVSCKASGYTFTSYVMHWVRQKPGQGLEWIGYINPYNEGTESTDKFKGRATMTSDKSTSTVYMELSSLRSEDTAVYYCASIYYGYEGTYFGVWGQGTLVTVSSASTKGPSVFPLAPSSKSTSGGTAALGCLVKDYFPEPVTVSWNSGALTSGVHTFPAVLQSSGLYSLSSVVTVPSSSLGTQTYICNVNHKPSNTKVDKKVEPKSCGGGGSGGGGSGGGGSGGGGSQAVVTQEPSLTVSPGGTVTLTCRSSTGAVTTSNYANWVQQKPGQAPRGLIGGTNKRAPWTPARFSGSLLGGKAALTITGAQAEDEADYYCALWYSNLWVFGGGTKLTVLGGGGSDKTHTCPPCPAPELLGPSVFLFPPKPKDTLMISRTPEVTCVVVDVSHEDPEVKFNWYVDGVEVHNAKTKPREEQYNSTYRVVSVLTVLHQDWLNGKEYKCKVSNKALGAPIEKTISKAKGQPREPQVYTLPPSREEMTKNQVSLSCAVKGFYPSDIAVEWESNGQPENNYKTTPPVLDSDGSFFLVSKLTVDKSRWQQGNVFSCSVMHEALHNRFTQKSLSLSPGKGGGGSGGGGSGGGGSGGGGSDIQMTQSPSSLSASVGDRVTITCKASQNVYKKLEWYQQKPGKVPKVLIYHTNILQTGVPSRFSGSGSGTDYTLTISSLQPEDVATYYCYQWNSGPTFGGGTKVEIK
chain 3: EIVLTQSPATLSLSPGERATLSCRASSSVSYMHWYQQKPGQAPRPWIYATSNLASGIPARFSGSRSGTDYTLTISSLEPEDFAVYYCQQWSSNTLTFGGGTKVEIKRTVAAPSVFIFPPSDEQLKSGTASVVCLLNNFYPREAKVQWKVDNALQSGNSQESVTEQDSKDSTYSLSSTLTLSKADYEKHKVYACEVTHQGLSSPVTKSFNRGEC
notes: anti-B7H3/CD3/PD-L1
B3: in the assay with PD-L1, the binding result is “binds”.

B4: Ly2944 (multi-specific antibody)
chain 1: QVQLQQSGAELVRPGSSVKISCKASGYAFSSYWMNWVKQRPGQGLEWIGQIWPGDGDTNYNGKFKGKATLTADESSSTAYMQLSSLASEDSAVYFCARRETTTVGRYYYAMDYWGQGTTVTVSSASVAAPSVFIFPPSDEQLKSGTASVVCLLNNFYPREAKVQWKVDNALQSGNSQESVTEQDSKDSTYSLSSTLTLSKADYEKHKVYACEVTHQGLSSPVTKSFNRGECGGGGSGGGGSGGGGSGGGGSEVQLVESGGGLVQPGGSLRLSCAASGFTFSTYAMNWVRQAPGKGLEWVGRIRSKYNNYATYYADSVKGRFTISRDDSKNSLYLQMNSLKTEDTAVYYCVRHGNFGNSYVSWFAYWGQGTLVTVSSGGGGSDKTHTCPPCPAPELLGPSVFLFPPKPKDTLMISRTPEVTCVVVDVSHEDPEVKFNWYVDGVEVHNAKTKPREEQYNSTYRVVSVLTVLHQDWLNGKEYKCKVSNKALGAPIEKTISKAKGQPREPQVYTLPPSREEMTKNQVSLWCLVKGFYPSDIAVEWESNGQPENNYKTTPPVLDSDGSFFLYSKLTVDKSRWQQGNVFSCSVMHEALHNHYTQKSLSLSPGKGGGGSGGGGSGGGGSGGGGSQVQLVQSGAEVKKPGASVKVSCKASGYTFAGFEMHWVRQAPGQGLEWMGAIDPKTGGTDYNQKFKDRVTMTRDTSISTAYMELSRLRSDDTAVYYCARDLGYFDVWGQGTLVTVSS
chain 2: QVQLQQPGAELVKPGASVKMSCKASGYTFTSYNMHWVKQTPGRGLEWIGAIYPGNGDTSYNQKFKGKATLTADKSSSTAYMQLSSLTSEDSAVYYCARSTYYGGDWYFNVWGAGTTVTVSAASTKGPSVFPLAPSSKSTSGGTAALGCLVKDYFPEPVTVSWNSGALTSGVHTFPAVLQSSGLYSLSSVVTVPSSSLGTQTYICNVNHKPSNTKVDKKVEPKSCGGGGSGGGGSGGGGSGGGGSQAVVTQEPSLTVSPGGTVTLTCRSSTGAVTTSNYANWVQQKPGQAPRGLIGGTNKRAPWTPARFSGSLLGGKAALTITGAQAEDEADYYCALWYSNLWVFGGGTKLTVLGGGGSDKTHTCPPCPAPELLGPSVFLFPPKPKDTLMISRTPEVTCVVVDVSHEDPEVKFNWYVDGVEVHNAKTKPREEQYNSTYRVVSVLTVLHQDWLNGKEYKCKVSNKALGAPIEKTISKAKGQPREPQVYTLPPSREEMTKNQVSLSCAVKGFYPSDIAVEWESNGQPENNYKTTPPVLDSDGSFFLVSKLTVDKSRWQQGNVFSCSVMHEALHNRFTQKSLSLSPGKGGGGSGGGGSGGGGSGGGGSDIQMTQSPSSLSASVGDRVTITCRASQDIRSNLNWYQQKPGGAVKLLIYYTSRLHSGVPSRFSGSGSGTDYTLTISSLQPEDFATYFCQQSEKLPRTFGGGTKVEIR
chain 3: DIQLTQSPASLAVSLGQRATISCKASQSVDYDGDSYLNWYQQIPGQPPKLLIYDASNLVSGIPPRFSGSGSGTDFTLNIHPVEKVDAATYHCQQSTEDPWTFGGGTKLEIKSSASTKGPSVFPLAPSSKSTSGGTAALGCLVKDYFPEPVTVSWNSGALTSGVHTFPAVLQSSGLYSLSSVVTVPSSSLGTQTYICNVNHKPSNTKVDKKVEPKSC
chain 4: QIVLSQSPAILSASPGEKVTMTCRASSSVSYIHWFQQKPGSSPKPWIYATSNLASGVPVRFSGSGSGTSYSLTISRVEAEDAATYYCQQWTSNPPTFGGGTKLEIKRTVAAPSVFIFPPSDEQLKSGTASVVCLLNNFYPREAKVQWKVDNALQSGNSQESVTEQDSKDSTYSLSSTLTLSKADYEKHKVYACEVTHQGLSSPVTKSFNRGEC
notes: CD19/CD20/CD3/CD137
For the molecule B4, the binding result with CD137 and in the assay with CD19 was “binds” throughout.
